In patent publication US20220242958A1, “BISPECIFIC NANOBODIES” (Ablynx N.V., priority 2013, published 2022):
Blank lines part the entries; values can stand above or below the molecule they belong to.

Tests used:
[1] = target: Her3 (Homo sapiens, UniProt P21860); settings: read-out: affinity to Her3; cited from earlier work
[2] = target: EGFR (Homo sapiens, UniProt P00533); settings: read-out: affinity to EGFR; cited from earlier work
[3] = target: T1, IL23R on Th17 differentiated T cells (Homo sapiens, UniProt Q5VWK5); assay: Flow cytometry binding to T cells differentiated towards Th17 phenotype; settings: IL23R Nanobodies on Th17 differentiated cells
T1 construct: endogenous in cells; host or cells: T cells within human PBMCs differentiated towards Th17
T1 sequence (Q5VWK5 24-629): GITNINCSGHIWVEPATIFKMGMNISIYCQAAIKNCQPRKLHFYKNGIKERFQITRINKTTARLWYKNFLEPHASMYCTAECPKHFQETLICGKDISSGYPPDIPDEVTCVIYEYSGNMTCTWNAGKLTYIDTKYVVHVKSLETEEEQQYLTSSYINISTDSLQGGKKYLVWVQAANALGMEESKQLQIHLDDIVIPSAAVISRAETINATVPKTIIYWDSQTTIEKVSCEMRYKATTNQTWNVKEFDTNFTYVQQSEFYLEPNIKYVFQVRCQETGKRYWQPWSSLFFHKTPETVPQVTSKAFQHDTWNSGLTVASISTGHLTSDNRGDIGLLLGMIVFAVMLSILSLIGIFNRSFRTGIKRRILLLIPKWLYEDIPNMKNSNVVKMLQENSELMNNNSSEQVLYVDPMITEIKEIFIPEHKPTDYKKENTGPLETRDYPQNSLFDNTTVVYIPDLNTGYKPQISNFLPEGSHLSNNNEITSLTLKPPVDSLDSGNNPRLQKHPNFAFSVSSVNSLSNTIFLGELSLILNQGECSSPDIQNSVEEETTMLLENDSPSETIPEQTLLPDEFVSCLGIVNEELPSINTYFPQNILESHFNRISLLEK
Method: As the expression of IL23R was very low in the T cell pool, the binding of monovalent IL23R Nanobodies was assessed on cells that were differentiated towards the Th17 phenotype by the incubation of PBMCs in the presence of a cytokine cocktail and IL-23, recombinant IL-6 (eBioscience #34-8069-82), recombinant TGF-b1 (R&D #240-B), anti-human IL-4 antibody(BD#554481), recombinant IL-1b (BD#554602)) and recombinant Human IL-23 (R&D Systems #219-IL-005) with co-stimulation of plate coated OKT-3 (eBioscience #16-0037-85), PeliCluster CD28 (Sanquin #M1650). Following this procedure, low but detectable IL23R expression levels were obtained. Optimization in the Th17 differentiation protocol could further increase these expression levels.
Dose-dependent binding of monovalent Nanobodies was assessed by flow cytometry on the respective Th1 or Th17 enriched T cell populations. Serial dilutions of antibody or Nanobodies were allowed to associate for 30 minutes at 4° C. in FACS buffer (PBS supplemented with 10% FBS and 0.05% azide). Cells were washed by centrifugation and probed with anti-FLAG antibodies (Sigma F1804) for 30 minutes at 4° C., to detect bound Nanobody. Detection was done with Goat anti-Mouse IgG-PE (Jackson ImmunoResearch #115-116-071) for 30 minutes at 4° C. […] The cells were then analysed via a BD FACSArray.

[4] = target: T2, human IL-23R extracellular domain Fc-fusion (Homo sapiens, UniProt Q5VWK5); assay: SPR (Biacore T100) on IL-23R-Fc; assay type: binding
T2 construct: Fc-fusions of human IL12Rβ1, IL12Rβ2 and IL-23R extracellular domains; purchased R&D Systems #1400-IR
T2 sequence (Q5VWK5 24-355 limits assumed): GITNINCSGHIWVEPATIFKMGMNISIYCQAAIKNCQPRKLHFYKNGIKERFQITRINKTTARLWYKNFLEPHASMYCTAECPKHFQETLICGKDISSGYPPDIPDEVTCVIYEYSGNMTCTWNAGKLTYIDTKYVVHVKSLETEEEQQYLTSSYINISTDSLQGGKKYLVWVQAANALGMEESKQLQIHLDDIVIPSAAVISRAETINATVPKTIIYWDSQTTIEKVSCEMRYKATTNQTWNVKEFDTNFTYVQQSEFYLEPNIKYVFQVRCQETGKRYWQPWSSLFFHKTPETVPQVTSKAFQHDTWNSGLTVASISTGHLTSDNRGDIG
Method: (§1) The precise binding affinities of the purified Nanobodies were determined in a multi-cycle kinetic analysis using Surface Plasmon Resonance analysis (Biacore T100) on Fc-fusions of human IL12Rβ1, IL12Rβ2 and IL-23R extracellular domains (R&D Systems, #839-B1, #1959-B2, #1400-IR). Sensorchips CM5 were immobilized with anti-hIgG antibody (GE Healthcare, BR-1008-39), after which receptors were captured at 5 μg/ml protein and contact time of 120 seconds. Running buffer used was HBS-EP+ (GE Healthcare, BR-1006-69) at 25° C., with a flow-rate of […]. For immobilization by amine coupling, EDC/NHS was used for activation and ethanolamine HCl for deactivation (Biacore, amine coupling kit). Nanobodies were evaluated at a concentration range between 1.37 nM and 3 μM. Nanobodies were allowed to associate for 2 min and to dissociate for 15 min at a flow rate of […]. In between injections, the surfaces were regenerated with a 3 min pulse of 3M MgCl2 and 2 min stabilization period. Evaluation of the association/dissociation data was performed by fitting a 1:1 interaction model (Langmuir binding model) by Biacore TWO software v2.0.3.

[5] = test system: IL-23 dependent IL-17 release, human PBMCs; assay: IL-23 dependent IL-17 release in human PBMCs; assay type: cell-based; settings: 9 days; donor D840
Method: In this assay set-up human PBMCs were cultured in the presence of soluble IL23 to allow differentiation of T cells towards the Th17 phenotype. Cells were seeded onto OKT-3 (eBioscience #16-0037-85) coated plates in the presence of recombinant human IL-23 (eBioscience #14-8239) and PeliCluster CD28 (Sanquin #M1650) in solution. Cytokine (IL17) release in the presence or absence of the respectively Nanobodies was determined by ELISA after an incubation period of 9 days.
Dose-dependent inhibition of the panel of bispecific IL23R-CD4 and IL12Rβ1-CD4 polypeptides was assessed in comparison to the respective monovalent Nanobodies, with in this case the IL12Rβ1-CD4 specific polypeptides serving as negative controls. […] There is a preference for the IL12Rβ1 building block in the C-terminal position from CD4 in this assay. There is a clear difference in potency between the two IL12Rβ1 family members, corresponding to the different binding kinetics and affinities, and this difference is preserved in the potency of the bispecific constructs.

[6] = test system: IL-12 dependent IFN-γ release, human T cells; assay: IL-12 mediated IFN-γ release in activated human T cells; assay type: cell-based; settings: 0.2 pM IL-12; 72 h; donor D839
Method: The ability of bispecific polypeptides to simultaneously engage both targets on the same cell was analysed in a IL-12 dependent functional assay, inhibition of IL-12 mediated IFN-γ release in activated human T cells. Since the functional blockade is only mediated via IL12R, avidity by the simultaneous binding of the CD4 Nanobody is expected to translate into increased potency of the bispecific in inhibition of cytokine release.
Isolated human T cells from buffycoats were activated for four days with Dynabeads® Human T-Activator CD3/CD28 (Gibco—Life Technologies #11131D) and one day with IL-2. To differentiate into Th1 subtype, T cells were cultured in presence of IL-12 with co-stimulation provided by plate coated CD3 at 0.5 μg/ml (eBioscience #16-0037-85) and anti-CD28 (1 μg/ml PeliCluster, Sanquin #M1650) in solution.
Dose-dependent blockade of IL-12 mediated IFNγ release was assessed for the bispecific IL-12Rβ2-CD4 and IL-12Rβ1-CD4 polypeptides in both orientations, and the corresponding monovalent Nanobodies. The IL-23R-CD4 bispecific polypeptides served as negative controls. Representative graphs of the bispecific IL12Rβ1-CD4, IL12Rβ2-CD4 and IL23R-CD4 polypeptides are shown in FIG. 3.9, and IC50 values in Table 3.2. […] Although bispecific constructs in both orientations show potency enhancements, the IL12Rβ2 Nanobody in the N-terminal position from CD4 gave stronger enhancements.

[7] = test system: activated human T cells; assay: Flow cytometry binding to activated human T cells (TH1); settings: IL12Rb1 and IL12Rb2 Nanobodies on TH1 activated T cells
Method: Dose-dependent binding of monovalent Nanobodies to their cell-expressed receptor in the context of the heterodimeric complex was determined by flow cytometry on activated human T cells from distinct healthy donors.
Human T cells were isolated using the Human T Cell Enrichment Cocktail (RosetteSep #15061) and pre-activated for four days with Dynabeads® Human T-Activator CD3/CD28 (Gibco—Life Technologies #11131D) and one day with recombinant human IL-2 (Life Technologies—Gibco #PHC0027) to induce TH1 differentiation. Routinely, T cell markers surface expression and activation state was checked by FACS using anti-CD3 PE (eBioscience #12-0037-73), anti-CD8-PE (BD Bioscience #555367), anti-CD45RO-PE (BD Bioscience #555493), anti-CD45RA-APC (BD Bioscience #550855) anti-CD25-PE (BD Bioscience #557138) and anti-CD69-PE (BD Bioscience #557050). IL12R surface expression was confirmed by FACS using IL12Rβ1 antibody (R&D MAB839), followed by goat anti-mouse PE (Jackson Immuno Research 115-115-164). The expression of IL23R was checked by polyclonal goat anti-IL-23R (R&D AF1400). CD4 surface expression was confirmed by FACS using APC-labelled anti-CD4 (BD Bioscience #345771). […]
Dose-dependent binding of monovalent Nanobodies was assessed by flow cytometry on the respective Th1 or Th17 enriched T cell populations. […] The cells were then analysed via a BD FACSArray.

[8] = target: T3, human IL12Rβ1 extracellular domain Fc-fusion (Homo sapiens, UniProt P42701); assay: SPR (Biacore T100) on IL12Rβ1-Fc; assay type: binding
T3 construct: Fc-fusions of human IL12Rβ1, IL12Rβ2 and IL-23R extracellular domains; purchased R&D Systems #839-B1
Method: as §1

B1: MEHD7945A: two-in-one Mab with specificity for EGFR and Her3 (antibody, chains of the INN, looked up, V domains shown)
VH: EVQLVESGGGLVQPGGSLRLSCAASGFTLSGDWIHWVRQAPGKGLEWVGEISAAGGYTDYADSVKGRFTISADTSKNTAYLQMNSLRAEDTAVYYCARESRVSFEAAMDYWGQGTLVTVSS
VL: DIQMTQSPSSLSASVGDRVTITCRASQNIATDVAWYQQKPGKAPKLLIYSASFLYSGVPSRFSGSGSGTDFTLTISSLQPEDFATYYCQQSEPEPYTFGQGTKVEIK
Kd [1]: 0.39 nM | Kd [2]: 1.9 nM

Binding T cells (FACS) EC50 (M) [3]: No fit | Binding kinetics (SPR) ka (1/Ms), IL-23R [4]: 3e+06 M⁻¹ s⁻¹ | Binding kinetics (SPR) kd (1/s), IL-23R [4]: 0.23 s⁻¹
B2: IL23R#20: IL-23R specific ligand competing Nanobody (protein)
VHH: EVQLVESGGGLVQAGGSLRLSCAASGRTFSSYAMGWFRQAPGKDREFVAAISWIGESTYYADSVKGRFTISRDNAKNTVYLRMNSLKPEDTAVYYCAADLYYTAYVAAADEYDYWGQGTLVTVSS
IL-17 release PBMC D840 IC50 (M) [5]: no fit

IFNγ release T cells D839 IC50 (M) [6]: no fit | Binding T cells (FACS) EC50 (M) [7]: No fit | Binding kinetics (SPR) ka (1/Ms), IL12Rβ1 [8]: 720000 M⁻¹ s⁻¹ | Binding kinetics (SPR) kd (1/s), IL12Rβ1 [8]: 0.017 s⁻¹
B3: IL12Rb1#31: IL-12Rβ1 specific ligand competing Nanobody (protein)
VHH: EVQLVESGGGLVQTGGSLRLSCAASGRTPSIIAMGWFRQTPGKEREFVGEIILSKGFTYYADSVKGRFTISRANAKNTITMYLQMNSLKSEDTAVYYCAARQNWSGNPTRTNEYEYWGQGTLVTVSS
